{"source": "patent US20170022275A1", "about": "(Dana-Farber, published 2017)", "molecules": {"B1": {"name": "CM33322 Ab4 (antibody, V domains shown)", "VH": "QVQLQESGPGLVRPSGTLSLTCAVSGGSIDYSNWWGWVRQVPGKGLEWIGEVYHTGATHYNPSLERRCIISVDKSNNQVSLQLTSVTAADSAIYYCARERGTHCDGNRCYYVFFDHWGQGIPVTVSS", "VL": "DIVMTQTPLSSPVTLGQPASISCRSSESLVHWDGTTYLSWFHQRPGQPPRLLIYKVSNRFSGVPDRFSGSGAGTDFTLKISRVEADDVGIYYCMQATQFPRTFGQGTKVEIKR", "notes": "also called anti-MICA antibody ID-11; antibody ID 11"}}, "key": {"[1]": {"molecular_target": "MICA antigen (UniGene Hs.130838) with C-terminal BirA tag (human) (UniProt Q29983)", "sequence (Q29983 other isoform, or with tags, fused parts or gaps limits assumed)": "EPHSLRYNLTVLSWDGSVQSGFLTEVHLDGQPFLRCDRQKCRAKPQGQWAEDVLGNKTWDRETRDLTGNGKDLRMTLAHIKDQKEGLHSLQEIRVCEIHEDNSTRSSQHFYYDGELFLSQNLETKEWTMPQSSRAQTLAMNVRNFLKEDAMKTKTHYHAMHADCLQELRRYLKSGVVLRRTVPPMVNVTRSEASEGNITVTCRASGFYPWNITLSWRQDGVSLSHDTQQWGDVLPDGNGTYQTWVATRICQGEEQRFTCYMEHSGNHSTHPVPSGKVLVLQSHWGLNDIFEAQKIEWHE", "experiment": "flow cytometry of MICA-coated streptavidin beads, Alexa488 anti-human IgG; antibody 6 µg/ml; uncoated SA bead: 2.63"}, "[2]": {"molecular_target": "MICA antigen (UniGene Hs.130838) with C-terminal BirA tag (human) (UniProt Q29983)", "experiment": "flow cytometry of MICA-coated streptavidin beads, Alexa488 anti-human IgG; antibody 30 µg/ml; uncoated SA bead: 3.53"}, "[3]": {"molecular_target": "MICA antigen (UniGene Hs.130838) with C-terminal BirA tag (human) (UniProt Q29983)", "experiment": "flow cytometry of MICA-coated streptavidin beads, Alexa488 anti-human IgG; antibody 1.2 µg/ml; uncoated SA bead: 2.16"}, "[4]": {"molecular_target": "MICA antigen (UniGene Hs.130838) with C-terminal BirA tag (human) (UniProt Q29983)", "experiment": "flow cytometry of MICA-coated streptavidin beads, Alexa488 anti-human IgG; antibody 0.24 µg/ml; uncoated SA bead: 2.3"}, "[5]": {"molecular_target": "MICA antigen (UniGene Hs.130838) with C-terminal BirA tag (human) (UniProt Q29983)", "experiment": "flow cytometry of MICA-coated streptavidin beads, Alexa488 anti-human IgG; antibody 0.05 µg/ml; uncoated SA bead: 2.18"}, "[6]": {"molecular_target": "MICA antigen (UniGene Hs.130838) with C-terminal BirA tag (human) (UniProt Q29983)", "experiment": "flow cytometry of MICA-coated streptavidin beads, antibody directly PE-conjugated; 0.002 µg/ml; uncoated SA bead: 2.16"}, "[7]": {"molecular_target": "MICA on the surface of cells (human) (UniProt Q29983)", "sequence (Q29983 24-383)": "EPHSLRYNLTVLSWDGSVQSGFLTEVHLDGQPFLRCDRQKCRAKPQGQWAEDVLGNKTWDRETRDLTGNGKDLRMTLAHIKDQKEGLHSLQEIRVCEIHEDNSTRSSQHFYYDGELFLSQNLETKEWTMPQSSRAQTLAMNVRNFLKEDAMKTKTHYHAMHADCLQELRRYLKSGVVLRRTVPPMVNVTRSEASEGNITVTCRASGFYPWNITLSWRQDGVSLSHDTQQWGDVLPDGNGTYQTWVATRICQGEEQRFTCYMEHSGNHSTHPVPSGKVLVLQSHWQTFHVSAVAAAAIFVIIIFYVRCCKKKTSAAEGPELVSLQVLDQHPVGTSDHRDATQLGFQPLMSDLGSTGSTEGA", "experiment": "flow cytometry on B16 melanoma cells transduced with human MICA, antibody 10 µg/ml; B16 MICA unstained 11.4; same antibody on untransduced B16: 7.49 (B16 unstained 7.12)"}, "[8]": {"molecular_target": "MICA antigen (UniGene Hs.130838) with C-terminal BirA tag (human) (UniProt Q29983)", "experiment": "flow cytometry of MICA-coated streptavidin beads, antibody directly PE-conjugated; legend box says 0.005ug, the label in the panel says 1.2 µg/ml (they do not agree); uncoated SA bead: 1.98"}, "[9]": {"molecular_target": "MICA antigen (UniGene Hs.130838) with C-terminal BirA tag (human) (UniProt Q29983)", "experiment": "flow cytometry of MICA-coated streptavidin beads, antibody directly PE-conjugated; legend box says 0.12ug, the label in the panel says 0.05 µg/ml (they do not agree); uncoated SA bead: 1.95"}, "[10]": {"molecular_target": "MICA antigen (UniGene Hs.130838) with C-terminal BirA tag (human) (UniProt Q29983)", "experiment": "flow cytometry of MICA-coated streptavidin beads, antibody directly PE-conjugated; legend box says 0.001ug, the label in the panel says 0.24 µg/ml (they do not agree); uncoated SA bead: 1.95"}, "[11]": {"molecular_target": "MICA antigen (UniGene Hs.130838) with C-terminal BirA tag (human) (UniProt Q29983)", "experiment": "flow cytometry of MICA-coated streptavidin beads, antibody directly PE-conjugated; legend box says 0.024ug, the label in the panel says 0.01 µg/ml (they do not agree); uncoated SA bead: 1.95"}, "MICA*009": {"molecular_target": "T1, MICA*009 (human, UniProt Q29983 26-307)", "T1 construct": "also called MICA allele 009", "T1 chain": "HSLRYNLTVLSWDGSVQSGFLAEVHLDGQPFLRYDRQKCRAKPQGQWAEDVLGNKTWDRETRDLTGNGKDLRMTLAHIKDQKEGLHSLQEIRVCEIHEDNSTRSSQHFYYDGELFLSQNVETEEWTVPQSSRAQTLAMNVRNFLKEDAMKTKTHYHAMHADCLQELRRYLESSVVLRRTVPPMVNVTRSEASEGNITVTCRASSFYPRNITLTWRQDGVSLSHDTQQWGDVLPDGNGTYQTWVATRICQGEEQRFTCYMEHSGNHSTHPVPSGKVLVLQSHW", "experiment": "array of overlapping 20-aa peptides of MICA*009 extracellular domains"}}}
{"molecule": "negative control antibody (TTCF specific)", "values": [{"measurement": "unnamed fluorescence number (FL1-H)", "setting": "[1]", "result": 2.62}, {"measurement": "unnamed fluorescence number (FL1-H)", "setting": "[2]", "result": 3.43}, {"measurement": "unnamed fluorescence number (FL1-H)", "setting": "[3]", "result": 2.27}, {"measurement": "unnamed fluorescence number (FL1-H)", "setting": "[4]", "result": 2.28}, {"measurement": "unnamed fluorescence number (FL1-H)", "setting": "[5]", "result": 2.23}]}
{"molecule": "commercially available anti-MICA/MICB monoclonal antibody (clone 6D4), BioLegend", "values": [{"measurement": "unnamed fluorescence number (FL2-H)", "setting": "[6]", "result": 4.31}, {"measurement": "Geom. Mean:FL1-H", "setting": "[7]", "result": 188}, {"measurement": "unnamed fluorescence number (FL2-H)", "setting": "[8]", "result": 65.9}, {"measurement": "unnamed fluorescence number (FL2-H)", "setting": "[9]", "result": 391}, {"measurement": "unnamed fluorescence number (FL2-H)", "setting": "[10]", "result": 16.8}, {"measurement": "unnamed fluorescence number (FL2-H)", "setting": "[11]", "result": 194}]}
{"molecule": "B1", "values": [{"measurement": "binding result", "setting": "MICA*009", "result": "binds"}]}
